Drawing on patent US20180209962A1, “SCREENING METHOD USING INDUCED NEURONS” (KYOTO UNIVERSITY, priority 2014, published 2018), this text covers survival rate of human normal iNs two days after adding the immunodepleted culture supernatant and amount of tau oligomer left in the culture supernatant after immunodepletion for 1 substance.

Experiment [1] deals with tau oligomer secreted into the culture supernatant by human tauopathy iNs (FTDP-17 patient, MAPT intron 10+14 C>T) (human) (UniProt P10636). The experiment is described as follows: cell-based or functional assay.
Sequence of tau oligomer secreted into the culture supernatant by human tauopathy iNs (FTDP-17 patient, MAPT intron 10+14 C>T) (human) (P10636 other isoform, or with tags, fused parts or gaps limits assumed): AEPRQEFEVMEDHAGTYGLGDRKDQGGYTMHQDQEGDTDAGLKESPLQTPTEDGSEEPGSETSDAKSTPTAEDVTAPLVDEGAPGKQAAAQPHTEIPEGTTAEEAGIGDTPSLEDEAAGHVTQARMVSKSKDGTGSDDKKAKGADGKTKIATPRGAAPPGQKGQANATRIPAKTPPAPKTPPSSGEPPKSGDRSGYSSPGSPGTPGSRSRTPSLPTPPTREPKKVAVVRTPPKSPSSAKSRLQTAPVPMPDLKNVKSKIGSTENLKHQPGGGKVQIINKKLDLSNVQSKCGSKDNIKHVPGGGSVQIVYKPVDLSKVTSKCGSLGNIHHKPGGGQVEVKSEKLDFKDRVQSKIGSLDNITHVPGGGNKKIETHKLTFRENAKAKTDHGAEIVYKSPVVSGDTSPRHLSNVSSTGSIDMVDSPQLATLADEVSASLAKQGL
Experiment [2] has the same target. The experiment is described as follows: immunodepletion of human tauopathy iN culture supernatant with antibody-bound beads; tau oligomer measured by ELISA. (ELISA stands for enzyme-linked immunosorbent assay.)

Sequence of tau oligometric complex 1 antibody (TOC1 antibody) (heavy): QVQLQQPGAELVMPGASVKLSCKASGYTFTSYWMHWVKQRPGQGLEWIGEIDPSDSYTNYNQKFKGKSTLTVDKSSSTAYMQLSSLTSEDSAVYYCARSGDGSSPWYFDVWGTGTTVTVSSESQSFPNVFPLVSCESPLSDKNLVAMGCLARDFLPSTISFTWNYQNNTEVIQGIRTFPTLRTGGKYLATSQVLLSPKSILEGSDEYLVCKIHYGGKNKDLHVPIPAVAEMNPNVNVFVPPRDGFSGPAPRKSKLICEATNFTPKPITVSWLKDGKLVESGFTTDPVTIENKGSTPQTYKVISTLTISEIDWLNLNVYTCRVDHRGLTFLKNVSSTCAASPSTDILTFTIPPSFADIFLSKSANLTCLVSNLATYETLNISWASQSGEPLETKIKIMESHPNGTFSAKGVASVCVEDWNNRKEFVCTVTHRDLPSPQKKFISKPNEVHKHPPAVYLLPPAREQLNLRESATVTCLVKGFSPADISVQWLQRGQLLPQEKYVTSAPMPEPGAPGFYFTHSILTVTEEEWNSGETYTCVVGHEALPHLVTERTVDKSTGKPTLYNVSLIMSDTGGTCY
Sequence of tau oligometric complex 1 antibody (TOC1 antibody) (light): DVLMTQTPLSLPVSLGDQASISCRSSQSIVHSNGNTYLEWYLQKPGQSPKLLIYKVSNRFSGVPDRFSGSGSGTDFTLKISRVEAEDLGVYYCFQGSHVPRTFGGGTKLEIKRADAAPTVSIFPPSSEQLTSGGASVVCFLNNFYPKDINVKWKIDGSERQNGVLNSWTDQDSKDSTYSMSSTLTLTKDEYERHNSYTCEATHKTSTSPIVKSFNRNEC

On to “tau oligometric complex 1 antibody (TOC1 antibody)”, for which the survival rate of human normal iNs two days after adding the immunodepleted culture supernatant in experiment [1] turned out to be 130%. This substance also came in with an amount of tau oligomer left in the culture supernatant after immunodepletion in experiment [2] of 27%.
